This is an account of results in IntAct's records for PubMed 29039417.

B1: Isoform 2 of Bardet-Biedl syndrome 7 protein (Homo sapiens), Q8IWZ6-2 (parent)
chain: MDLILNRMDYLQVGVTSQKTMKLIPASRHRATQKVVIGDHDGVVMCFGMKKGEAAAVFKTLPGPKIARLELGGVINTPQEKIFIAAASEIRGFTKRGKQFLSFETNLTESIKAMHISGSDLFLSASYIYNHYCDCKDQHYYLSGDKINDVICLPVERLSRITPVLACQDRVLRVLQGSDVMYAVEVPGPPTVLALHNGNGGDSGEDLLFGTSDGKLALIQITTSKPVRKWEIQNEKKRGGILCIDSFDIVGDGVKDLLVGRDDGMVEVYSFDNANEPVLRFDQMLSESVTSIQGGCVGKDSYDEIVVSTYSGWVTGLTTEPIHKESGPGEELKINQEMQNKISSLRNELEHLQYKVLQERENYQQSSQSSKAKSAVPSFGINDKFTLNKDDASYSLILEVQTAIDNVLIQSDVPIDLLDVDKNSAVVSFSSCDSESNDNFLLATYRCQADTTRLELKIRSIEGQYGTLQAYVTPRIQPKTCQVRQYHIKPLSLHQRTHFIDHDRPMNTLTLTGQFSFAEVHSWVVFCLPEVPEKPPAGECVTFYFQNTFLDTQLESTYRKGEGVFKSDNISTISILKDVLSKEATKRKINLNISYEINEVSVKHTLKLIHPKLEYQLLLAKKVQLIDALKELQIHEGNTNFLIPEYHCILEEADHLQEEYKKQPAHLERLYG
partner: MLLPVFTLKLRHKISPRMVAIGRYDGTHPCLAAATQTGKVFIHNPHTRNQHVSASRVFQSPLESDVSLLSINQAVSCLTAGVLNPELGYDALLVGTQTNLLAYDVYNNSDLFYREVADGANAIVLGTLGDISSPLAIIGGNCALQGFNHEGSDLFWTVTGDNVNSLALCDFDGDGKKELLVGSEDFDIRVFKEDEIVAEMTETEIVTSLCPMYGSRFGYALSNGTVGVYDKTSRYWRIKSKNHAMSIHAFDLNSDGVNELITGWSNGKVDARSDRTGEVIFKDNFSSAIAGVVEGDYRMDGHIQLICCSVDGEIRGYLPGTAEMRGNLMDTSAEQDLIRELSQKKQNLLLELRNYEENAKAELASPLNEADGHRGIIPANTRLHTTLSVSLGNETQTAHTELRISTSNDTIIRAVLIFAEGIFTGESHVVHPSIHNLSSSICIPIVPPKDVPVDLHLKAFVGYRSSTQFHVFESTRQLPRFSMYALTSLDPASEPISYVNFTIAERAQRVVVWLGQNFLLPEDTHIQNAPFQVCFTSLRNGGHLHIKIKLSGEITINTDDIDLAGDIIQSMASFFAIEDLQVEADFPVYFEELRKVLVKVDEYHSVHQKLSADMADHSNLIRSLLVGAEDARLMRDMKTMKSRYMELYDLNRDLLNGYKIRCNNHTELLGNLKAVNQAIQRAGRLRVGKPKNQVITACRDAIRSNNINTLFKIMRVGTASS

Variants of B1 are the subject of one test. The following applies: with bbs2_human BBS2, Q9BXC9.
In the case of P664A, the “effect of a mutation on the interaction” value is recorded as “with no effect”.

Turning to H666K, the “effect of a mutation on the interaction” value was “with no effect”.

As to H666E, the “effect of a mutation on the interaction” value was “with no effect”.

Take H666A: the “effect of a mutation on the interaction” value is on record as “with no effect”.

With Q624E, the “effect of a mutation on the interaction” value is “with no effect”.

Regarding Q624A, the “effect of a mutation on the interaction” value is reported as “with no effect”.

Turning to Q624L, the “effect of a mutation on the interaction” value is recorded as “disrupting interaction strength”.

For the variant Q624Y, the “effect of a mutation on the interaction” value is given as “disrupting interaction strength”.

Regarding Q624K, the “effect of a mutation on the interaction” value is recorded as “with no effect”.

For Q624S, the “effect of a mutation on the interaction” value is listed as “disrupting interaction strength”.

On to E636K, for which the “effect of a mutation on the interaction” value is given as “with no effect”.

For E636A, the “effect of a mutation on the interaction” value is reported as “with no effect”.

As for Y646A, the “effect of a mutation on the interaction” value is reported as “with no effect”.

Regarding Y646E, the “effect of a mutation on the interaction” value is listed as “with no effect”.

For the variant Y646K, the “effect of a mutation on the interaction” value is listed as “with no effect”.

As to P611K, the “effect of a mutation on the interaction” value was “with no effect”.

For P611E, the “effect of a mutation on the interaction” value is recorded as “with no effect”.

Consider P611A, for which the “effect of a mutation on the interaction” value is “with no effect”.

Turning to L613K, the “effect of a mutation on the interaction” value was “with no effect”.

As to L613E, the “effect of a mutation on the interaction” value was “with no effect”.

Take L613A: the “effect of a mutation on the interaction” value is “with no effect”.

Regarding L632E, the “effect of a mutation on the interaction” value is on record as “with no effect”.

L632K: the “effect of a mutation on the interaction” value was “with no effect”.

As to L632A, the “effect of a mutation on the interaction” value was “with no effect”.

As for D654E, the “effect of a mutation on the interaction” value is recorded as “with no effect”.

On to D654K, for which the “effect of a mutation on the interaction” value was “with no effect”.

With D654A, the “effect of a mutation on the interaction” value is “with no effect”.

On to G672A, for which the “effect of a mutation on the interaction” value is “with no effect”.

On to G672E, for which the “effect of a mutation on the interaction” value is reported as “with no effect”.

As to G672K, the “effect of a mutation on the interaction” value was “with no effect”.

As to L629A, the “effect of a mutation on the interaction” value is given as “with no effect”.

On to L629E, for which the “effect of a mutation on the interaction” value is recorded as “with no effect”.

For the variant L629K, the “effect of a mutation on the interaction” value is given as “with no effect”.

For E668A, the “effect of a mutation on the interaction” value is “with no effect”.

Take E668K: the “effect of a mutation on the interaction” value was “with no effect”.

With L608K, the “effect of a mutation on the interaction” value is recorded as “with no effect”.

As to L608E, the “effect of a mutation on the interaction” value is recorded as “with no effect”.

L608A: the “effect of a mutation on the interaction” value is “with no effect”.

As for L617A, the “effect of a mutation on the interaction” value is listed as “with no effect”.

Take L617E: the “effect of a mutation on the interaction” value is on record as “with no effect”.

As for L617K, the “effect of a mutation on the interaction” value was “with no effect”.

Regarding E659A, the “effect of a mutation on the interaction” value was “with no effect”.

For E659K, the “effect of a mutation on the interaction” value is recorded as “with no effect”.

With I643K, the “effect of a mutation on the interaction” value is recorded as “with no effect”.

In the case of I643E, the “effect of a mutation on the interaction” value is on record as “with no effect”.

I643A: the “effect of a mutation on the interaction” value is “with no effect”.

Turning to G637K, the “effect of a mutation on the interaction” value is “with no effect”.

On to G637E, for which the “effect of a mutation on the interaction” value was “with no effect”.

On to G637A, for which the “effect of a mutation on the interaction” value was “with no effect”.

For the variant K622A, the “effect of a mutation on the interaction” value is on record as “with no effect”.

Take K622E: the “effect of a mutation on the interaction” value was “with no effect”.

Take I626A: the “effect of a mutation on the interaction” value is “with no effect”.

I626E: the “effect of a mutation on the interaction” value is on record as “with no effect”.

I626K: the “effect of a mutation on the interaction” value is “with no effect”.

For the variant Q657A, the “effect of a mutation on the interaction” value is “with no effect”.

Consider Q657E, for which the “effect of a mutation on the interaction” value was “with no effect”.

Take Q657K: the “effect of a mutation on the interaction” value was “with no effect”.

In the case of N638E, the “effect of a mutation on the interaction” value is on record as “with no effect”.

As for N638K, the “effect of a mutation on the interaction” value was “with no effect”.

Consider N638A, for which the “effect of a mutation on the interaction” value was “with no effect”.

On to L618A, for which the “effect of a mutation on the interaction” value is “with no effect”.

With L618K, the “effect of a mutation on the interaction” value is on record as “with no effect”.

Consider L618E, for which the “effect of a mutation on the interaction” value was “with no effect”.

On to E651A, for which the “effect of a mutation on the interaction” value is on record as “with no effect”.

With E651K, the “effect of a mutation on the interaction” value was “with no effect”.

For A653E, the “effect of a mutation on the interaction” value was “with no effect”.

Turning to A653K, the “effect of a mutation on the interaction” value is “with no effect”.

With V623K, the “effect of a mutation on the interaction” value is listed as “with no effect”.

Consider V623E, for which the “effect of a mutation on the interaction” value is recorded as “with no effect”.

Consider V623A, for which the “effect of a mutation on the interaction” value is listed as “with no effect”.

Turning to R669A, the “effect of a mutation on the interaction” value was “with no effect”.

Turning to R669E, the “effect of a mutation on the interaction” value is reported as “with no effect”.

With R669K, the “effect of a mutation on the interaction” value is given as “with no effect”.

Consider L667E, for which the “effect of a mutation on the interaction” value is reported as “with no effect”.

Consider L667K, for which the “effect of a mutation on the interaction” value is given as “with no effect”.

In the case of L667A, the “effect of a mutation on the interaction” value is listed as “with no effect”.

Consider N640E, for which the “effect of a mutation on the interaction” value is reported as “with no effect”.

Take N640K: the “effect of a mutation on the interaction” value is given as “with no effect”.

Take N640A: the “effect of a mutation on the interaction” value is given as “with no effect”.

As to A665E, the “effect of a mutation on the interaction” value is recorded as “with no effect”.

Turning to A665K, the “effect of a mutation on the interaction” value was “with no effect”.

For H647A, the “effect of a mutation on the interaction” value was “with no effect”.

For H647E, the “effect of a mutation on the interaction” value is “with no effect”.

On to H647K, for which the “effect of a mutation on the interaction” value is recorded as “with no effect”.

L642K: the “effect of a mutation on the interaction” value was “with no effect”.

With L642E, the “effect of a mutation on the interaction” value is “with no effect”.

Turning to L642A, the “effect of a mutation on the interaction” value is listed as “with no effect”.

Take E631K: the “effect of a mutation on the interaction” value was “with no effect”.

E631A: the “effect of a mutation on the interaction” value is “with no effect”.

Take Q663A: the “effect of a mutation on the interaction” value is recorded as “with no effect”.

For the variant Q663K, the “effect of a mutation on the interaction” value was “with no effect”.

Consider Q663E, for which the “effect of a mutation on the interaction” value is “with no effect”.

Another test covers variants of B1. The following applies: with bbs2_human BBS2, Q9BXC9. This is another data set of the same source.
For the variant S556R, the “effect of a mutation on the interaction” value is on record as “with no effect”.
